B1: 370_B03 (antibody, V domains shown)
VH: EVQLLESGGGLVQPGGSLRLSCAASGFTFSSYSMNWVRQAPGKGLEWVANINYNGGYTGYADSVKGRFTISRDNSKNTLYLQMNSLRAEDTAVYYCARGANWHDTALDYWGQGTLVTVSS
VL: DIQMTQSPSSLSASVGDRVTITCRASQSILSYLNWYQQKPGKAPKLVIYAATSRASGVPSRFSGSGSGTDFTLTISSLQPEDFATYYCQQSYNNPLTFGGGTKVEIK
B2: 371_E07 (antibody, V domains shown)
VH: EVQLLESGGGLVQPGGSLRLSCAASGFTFDSYSMNWVRQAPGKGLEWVAGINYNGGYTSYADSVKGRFTISRDNSKNTLYLQMNSLRAEDTAVYYCARGANWHDTALDYWGQGTLVTVSS
VL: DIQMTQSPSSLSASVGDRVTITCRASQSIISYLNWYQQKPGKAPKLLIYAATSLASGVPSRFSGSGSGTDFTLTISSLQPEDFATYYCQQSYESPLTFGGGTKVEIK
B3: 371_E10 (antibody, V domains shown)
VH: EVQLLESGGGLVQPGGSLRLSCAASGFTFDSYSMNWVRQAPGKGLEWVAGINYNGGYTSYADSVKGRFTISRDNSKNTLYLQMNSLRAEDTAVYYCARGANWHDTALDYWGQGTLVTVSS
VL: DIQMTQSPSSLSASVGDRVTITCRASQSISTYLNWYQQKPGKAPKLLIYAVTSRASGVPSRFSGSGSGTDFTLTISSLQPEDFATYYCQQSYNSPLTFGGGTKVEIK
B4: 371_E06 (antibody, V domains shown)
VH: EVQLLESGGGLVQPGGSLRLSCAASGFTFSSYSMNWVRQAPGKGLEWVSGINYNGGYTSYADSVKGRFTISRDNSKNTLYLQMNSLRAEDTAVYYCARGANWHDTALDYWGQGTLVTVSS
VL: DIQMTQSPSSLSASVGDRVTITCRASQSISTYLNWYQQKPGKAPKLLIYAVTSLHSGVPSRFSGSGSGTDFTLTISSLQPEDFATYYCQQSYESPLTFGGGTKVEIK
B5: 370_D05 (antibody, V domains shown)
VH: EVQLLESGGGLVQPGGSLRLSCAASGFTFDDYSMNWVRQAPGKGLEWVSNINYNGGYKGYADSVKGRFTISRDNSKNTLYLQMNSLRAEDTAVYYCARGANWHDTALDYWGQGTLVTVSS
VL: DIQMTQSPSSLSASVGDRVTITCRASQSIITYLNWYQQKPGKAPKLVIYAATSRHSGVPSRFSGSGSGTDFTLTISSLQPEDFATYYCQQSYDTPLTFGGGTKVEIK
B6: 370_B12 (antibody, V domains shown)
VH: EVQLLESGGGLVQPGGSLRLSCAASGFTFSDYSMNWVRQAPGKGLEWVSGINYNGGYKGYADSVKGRFTISRDNSKNTLYLQMNSLRAEDTAVYYCARGANWHDTALDYWGQGTLVTVSS
VL: DIQMTQSPSSLSASVGDRVTITCRASQSILSYVNWYQQKPGKAPKLVIYATTSRASGVPSRFSGSGSGTDFTLTISSLQPEDFATYYCQQSYETPLTFGGGTKVEIK
B7: 370_F03 (antibody, V domains shown)
VH: EVQLLESGGGLVQPGGSLRLSCAASGFTFSSYGMNWVRQAPGKGLEWVSSINYNSGYKSYADSVKGRFTISRDNSKNTLYLQMNSLRAEDTAVYYCARGANWHDTALDYWGQGTLVTVSS
VL: DIQMTQSPSSLSASVGDRVTITCRASQSILSYVNWYQQKPGKAPKLLIYAATSRASGVPSRFSGSGSGTDFTLTISSLQPEDFATYYCQQSYENPLTFGGGTKVEIK
B8: 370_H02 (antibody, V domains shown)
VH: EVQLLESGGGLVQPGGSLRLSCAASGFTFDSYSMNWVRQAPGKGLEWVSGINYNSGYTSYADSVKGRFTISRDNSKNTLYLQMNSLRAEDTAVYYCARGANWHDTHLDYWGQGTLVTVSS
VL: DIQMTQSPSSLSASVGDRVTITCRASQSILTYLNWYQQKPGKAPKLLIYAATSRASGVPSRFSGSGSGTDFTLTISSLQPEDFATYYCQQSYESPLTFGGGTKVEIK
B9: 371_B03 (antibody, V domains shown)
VH: EVQLLESGGGLVQPGGSLRLSCAASGFTFSSYGMHWVRQAPGKGLEWVASINYNGGYTSYADSVKGRFTISRDNSKNTLYLQMNSLRAEDTAVYYCARGANWHDTHLDYWGQGTLVTVSS
VL: DIQMTQSPSSLSASVGDRVTITCRASQSILSYVNWYQQKPGKAPKLLIYATTSRASGVPSRFSGSGSGTDFTLTISSLQPEDFATYYCQQSYDNPLTFGGGTKVEIK
B10: 370_B11 (antibody, V domains shown)
VH: EVQLLESGGGLVQPGGSLRLSCAASGFTFDSYSMNWVRQAPGKGLEWVSGINYNSGYTSYADSVKGRFTISRDNSKNTLYLQMNSLRAEDTAVYYCARGANWHDTHLDYWGQGTLVTVSS
VL: DIQMTQSPSSLSASVGDRVTITCRASQSILSYLNWYQQKPGKAPKLVIYAATSRHSGVPSRFSGSGSGTDFTLTISSLQPEDFATYYCQQGYDLPLTFGGGTKVEIK
B11: 371_D02 (antibody, V domains shown)
VH: EVQLLESGGGLVQPGGSLRLSCAASGFTFDDYSMNWVRQAPGKGLEWVAGINYNGGYKSYADSVKGRFTISRDNSKNTLYLQMNSLRAEDTAVYYCARGANWHDTALDYWGQGTLVTVSS
VL: DIQMTQSPSSLSASVGDRVTITCRASQSIVTYLNWYQQKPGKAPKLLIYAATSRASGVPSRFSGSGSGTDFTLTISSLQPEDFATYYCQQSYDSPLTFGGGTKVEIK
B12: 371_A10 (antibody, V domains shown)
VH: EVQLLESGGGLVQPGGSLRLSCAASGFTFDDYSMNWVRQAPGKGLEWVSGINYNGGYKGYADSVKGRFTISRDNSKNTLYLQMNSLRAEDTAVYYCARGANWHDTALDYWGQGTLVTVSS
VL: DIQMTQSPSSLSASVGDRVTITCRASQSIVSYLNWYQQKPGKAPKLVIYAATSRASGVPSRFSGSGSGTDFTLTISSLQPEDFATYYCQQSYENPLTFGGGTKVEIK
B13: 371_C01 (antibody, V domains shown)
VH: EVQLLESGGGLVQPGGSLRLSCAASGFTFSSYGMHWVRQAPGKGLEWVSSINYNGGYTGYADSVKGRFTISRDNSKNTLYLQMNSLRAEDTAVYYCARGANWHDTHLDYWGQGTLVTVSS
VL: DIQMTQSPSSLSASVGDRVTITCRASQSIVSYLNWYQQKPGKAPKLLIYAATSRHSGVPSRFSGSGSGTDFTLTISSLQPEDFATYYCQQSYDNPLTFGGGTKVEIK
B14: 371_C12 (antibody, V domains shown)
VH: EVQLLESGGGLVQPGGSLRLSCAASGFTFSSYSMNWVRQAPGKGLEWVAGINYNSGYKSYADSVKGRFTISRDNSKNTLYLQMNSLRAEDTAVYYCARGANWHDTHLDYWGQGTLVTVSS
VL: DIQMTQSPSSLSASVGDRVTITCRASQSIVSYVNWYQQKPGKAPKLLIYAATSRASGVPSRFSGSGSGTDFTLTISSLQPEDFATYYCQQSYDTPLTFGGGTKVEIK
B15: 367_D11 (antibody, V domains shown)
VH: EVQLLESGGGLVQPGGSLRLSCAASGFTFDSYGMHWVRQAPGKGLEWVSNINYNGGYKSYADSVKGRFTISRDNSKNTLYLQMNSLRAEDTAVYYCARAANWHDTALDYWGQGTLVTVSS
VL: DIQMTQSPSSLSASVGDRVTITCRASQSIISYLNWYQQKPGKAPKLLIYAATSRASGVPSRFSGSGSGTDFTLTISSLQPEDFATYYCQQSYDSPLTFGGGTKVEIK
B16: 371_D04 (antibody, V domains shown)
VH: EVQLLESGGGLVQPGGSLRLSCAASGFTFDDYSMNWVRQAPGKGLEWVAGINYNGGYTGYADSVKGRFTISRDNSKNTLYLQMNSLRAEDTAVYYCARGANWHDTHLDYWGQGTLVTVSS
VL: DIQMTQSPSSLSASVGDRVTITCRASQSIVSYVNWYQQKPGKAPKLLIYAATSLASGVPSRFSGSGSGTDFTLTISSLQPEDFATYYCQQSYENPLTFGGGTKVEIK
B17: 370_H07 (antibody, V domains shown)
VH: EVQLLESGGGLVQPGGSLRLSCAASGFTFSSYSMNWVRQAPGKGLEWVAGINYNGGYKSYADSVKGRFTISRDNSKNTLYLQMNSLRAEDTAVYYCARGANWHDTALDYWGQGTLVTVSS
VL: DIQMTQSPSSLSASVGDRVTITCRASQSILSYLNWYQQKPGKAPKLLIYAATSLASGVPSRFSGSGSGTDFTLTISSLQPEDFATYYCQQSDSSPLTFGGGTKVEIK
B18: 371_B12 (antibody, V domains shown)
VH: EVQLLESGGGLVQPGGSLRLSCAASGFTFSDYSMNWVRQAPGKGLEWVAGINYNSGYTSYADSVKGRFTISRDNSKNTLYLQMNSLRAEDTAVYYCARGANWHDTALDYWGQGTLVTVSS
VL: DIQMTQSPSSLSASVGDRVTITCRASQSIVTYLNWYQQKPGKAPKLVIYAATSRHSGVPSRFSGSGSGTDFTLTISSLQPEDFATYYCQQSYNNPLTFGGGTKVEIK
B19: 371_B09 (antibody, V domains shown)
VH: EVQLLESGGGLVQPGGSLRLSCAASGFTFSSYSMNWVRQAPGKGLEWVAGINYNSGYTGYADSVKGRFTISRDNSKNTLYLQMNSLRAEDTAVYYCARGANWHDTHLDYWGQGTLVTVSS
VL: DIQMTQSPSSLSASVGDRVTITCRASQSILSYVNWYQQKPGKAPKLVIYATTSLASGVPSRFSGSGSGTDFTLTISSLQPEDFATYYCQQSYDTPLTFGGGTKVEIK
B20: 371_B04 (antibody, V domains shown)
VH: EVQLLESGGGLVQPGGSLRLSCAASGFTFSSYSMNWVRQAPGKGLEWVSGINYNGGYKSYADSVKGRFTISRDNSKNTLYLQMNSLRAEDTAVYYCARGANWHDTALDYWGQGTLVTVSS
VL: DIQMTQSPSSLSASVGDRVTITCRASQSILSYLNWYQQKPGKAPKLVIYAVTSRHSGVPSRFSGSGSGTDFTLTISSLQPEDFATYYCQQSYDSPLTFGGGTKVEIK
B21: 371_C05 (antibody, V domains shown)
VH: EVQLLESGGGLVQPGGSLRLSCAASGFTFSDYGMHWVRQAPGKGLEWVANINYNGGYTGYADSVKGRFTISRDNSKNTLYLQMNSLRAEDTAVYYCARGANWHDTALDYWGQGTLVTVSS
VL: DIQMTQSPSSLSASVGDRVTITCRASQSILSYLNWYQQKPGKAPKLLIYAATSRASGVPSRFSGSGSGTDFTLTISSLQPEDFATYYCQQSYDSPLTFGGGTKVEIK

The experiment has as its target human Fc (human). In words: ELISA, negative control.
The molecule B1 registered an optical density of 0.3 OD.

B2: the optical density worked out at 0.337 OD.

As for B3, the optical density came to 0.341 OD.

Molecule B4 yielded an optical density of 0.33 OD.

B5: the optical density was 0.333 OD.

B6: the optical density came to 0.478 OD.

Take B7: the optical density was determined as 0.373 OD.

Molecule B8 gave an optical density of 0.386 OD.

On to B9, for which the optical density was 0.367 OD.

B10 displayed an optical density of 0.326 OD.

On to B11, for which the optical density worked out at 0.385 OD.

B12 showed an optical density of 0.338 OD.

As for B13, the optical density turned out to be 0.402 OD.

Regarding B14, the optical density was 0.544 OD.

Consider B15, for which the optical density is 0.304 OD.

B16 returned an optical density of 0.276 OD.

Consider B17, for which the optical density is 0.403 OD.

The molecule B18 displayed an optical density of 0.378 OD.

For B19, the optical density came to 0.292 OD.

In the case of B20, the optical density came out at 0.295 OD.

Molecule B21 returned an optical density of 0.269 OD.
